B1: 9TL variant 22-T/I Fab (Fab, V domains shown)
VH: QVQLVQSGAEVKKPGASVKVSCKASGYYTEAYYIHWVRQAPGQGLEWMGRIDPATGNTKYAPRLQDRVTMTRDTSTSTVYMELSSLRSEDTAVYYCASLYSLPVYWGQGTTVTVSS
VL: DVVMTQSPLSLPVTLGQPASISCKSSQSLLYSDAKTYLNWFQQRPGQSPRRLIYQISRLDPGVPDRFSGSGSGTDFTLKISRVEAEDVGVYYCLQGTHYPVIFGQGTRLEIKR
notes: Fab; human IgG2 CH1 and kappa CL
B2: 9TL variant M21 Fab (Fab, V domains shown)
VH: B1 VH
VL: B1 VL with Y99E, I102L
notes: as for B1
B3: 9TL variant M10 Fab (Fab, V domains shown)
VH: B1 VH
VL: B1 VL with L94S, I102L
notes: Fab; human IgG2 CH1 and kappa CL; same printed substitution as M7
B4: 9TL variant M9 Fab (Fab, V domains shown)
VH: B1 VH
VL: B1 VL with L94G, I102L
notes: as for B1
B5: 9TL variant M16 Fab (Fab, V domains shown)
VH: B1 VH
VL: B1 VL with Y99A, I102L
notes: as for B1
B6: 9TL variant M2 Fab (Fab, V domains shown)
VH: B1 VH
VL: B1 VL with L94N, I102L
notes: as for B1
B7: 9TL variant M23 Fab (Fab, V domains shown)
VH: B1 VH
VL: B1 VL with V101K, I102L
notes: as for B1
B8: 9TL variant M14 Fab (Fab, V domains shown)
VH: B1 VH
VL: B1 VL with H98L, I102L
notes: as for B1
B9: 9TL variant M15 Fab (Fab, V domains shown)
VH: B1 VH
VL: B1 VL with Y99P, I102L
notes: as for B1
B10: 9TL variant M12 Fab (Fab, V domains shown)
VH: B1 VH
VL: B1 VL with G96T, I102L
notes: as for B1
B11: 9TL variant M22 Fab (Fab, V domains shown)
VH: B1 VH
VL: B1 VL with V101L, I102L
notes: as for B1
B12: 9TL variant M18 Fab (Fab, V domains shown)
VH: B1 VH
VL: B1 VL with Y99Q, I102L
notes: as for B1
B13: 9TL variant M7 Fab (Fab, V domains shown)
VH: B1 VH
VL: B1 VL with L94S, I102L
notes: as for B1
B14: 9TL variant M4 Fab (Fab, V domains shown)
VH: B1 VH
VL: B1 VL with L94F, I102L
notes: as for B1
B15: 9TL variant M20 Fab (Fab, V domains shown)
VH: B1 VH
VL: B1 VL with Y99S, I102L
notes: as for B1
B16: 9TL variant M3 Fab (Fab, V domains shown)
VH: B1 VH
VL: B1 VL with L94C, I102L
notes: as for B1
B17: 9TL variant M6 Fab (Fab, V domains shown)
VH: B1 VH
VL: B1 VL with L94K, I102L
notes: as for B1
B18: 9TL variant M11 Fab (Fab, V domains shown)
VH: B1 VH
VL: B1 VL with G96S, I102L
notes: as for B1
B19: 9TL variant M17 Fab (Fab, V domains shown)
VH: B1 VH
VL: B1 VL with Y99W, I102L
notes: as for B1
B20: 9TL variant M1 Fab (Fab, V domains shown)
VH: B1 VH
VL: B1 VL with L94M, I102L
notes: as for B1
B21: 9TL variant M13 Fab (Fab, V domains shown)
VH: B1 VH
VL: B1 VL with T97S, I102L
notes: as for B1
B22: 9TL variant M19 Fab (Fab, V domains shown)
VH: B1 VH
VL: B1 VL with Y99M, I102L
notes: as for B1
B23: 9TL variant M8 Fab (Fab, V domains shown)
VH: B1 VH
VL: B1 VL with L94Q, I102L
notes: as for B1
B24: 9TL variant C6 new Fab (Fab, V domains shown)
VH: B1 VH
VL: B1 VL with I102T
notes: as for B1

For 24 molecules, kon, Kd and koff results are on record in patent US20090022728A1 (RINAT NEUROSCIENCE, published 2009).

Where a chain is given by its changes, count along the chain named.

Broadly, the kon is the second-order rate constant of association. A low value points to slow association. Broadly, the Kd is the concentration at which binding is half-saturated. A higher Kd goes with weaker binding. The koff is the first-order rate constant of dissociation. Lower therefore signals a long-lived complex.

The target in the first test is T1, biotinylated Aβ1-40 peptide (biotinylated (N-biotinylated in Example 7)).
T1 construct: captured on streptavidin (SA) chip; also called Biotinylated Aβ peptide 1-40; Aβ1-40 on SA chip
T1 sequence (peptide, as listed by the source): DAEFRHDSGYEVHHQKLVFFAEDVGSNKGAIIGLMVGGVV
The test is described as follows: SPR, Fab over Aβ1-40 on SA chip; kon may be assumed = 9TL (footnote 2). As for the experimental part:
(§1) Affinities of 9TL Fab fragment and its variants Fab fragments were determined by Surface Plasmon Resonance (SPR) system (BIAcore 3000™, BIAcore, Inc., Piscaway, N.J.). SA chips (streptavidin) were used according to the supplier's instructions. Biotinylated Aβ peptide 1-40 was diluted into HBS-EP (10 mM HEPES pH 7.4, 150 mM NaCl, 3 mM EDTA, 0.005% P20) and injected over the chip at a concentration of 0.005 mg/mL. Using variable flow time across the individual chip channels, two ranges of antigen density were achieved: 10-200 response units (RU) for detailed kinetic studies and 500-600 RU for concentration studies and screening. […] HBS-EP buffer was used as running buffer for all the BIAcore assays. […] The concentrations of the Fab proteins were determined by ELISA and/or SDS-PAGE electrophoresis using a standard Fab of known concentration (determined by amino acid analysis). Kinetic association rates (kₒₙ) and dissociation rates (koff) were obtained simultaneously by fitting the data to a 1:1 Langmuir binding model (Karlsson, R. Roos, H. Fagerstam, L. Petersson, B. (1994). Methods Enzymology 6. 99-110) using the BIAevaluation program. Equilibrium dissociation constant (KD) values were calculated as koff/kₒₙ.
(§2) All amino acid substitutions of the variants shown in Table 3 are described relative to the sequence of 9TL. KD and other kinetic parameters were determined by BIAcore analysis described above with Aβ₁₋₄₀ immobilized on SA chip.
B1 yielded a kon of 318000 M⁻¹ s⁻¹.
Still for that read-out and setting: the figure for B2 is 318000 M⁻¹ s⁻¹; for B3 it is 318000 M⁻¹ s⁻¹; for B4 it is 318000 M⁻¹ s⁻¹.
In turn, B5 came in with a kon of 318000 M⁻¹ s⁻¹.
On the same count and under the same terms, the value for B6 was 318000 M⁻¹ s⁻¹; that for B7 was 318000 M⁻¹ s⁻¹; that for B8 was 318000 M⁻¹ s⁻¹.
Same read-out and setting: the value for B9 was 318000 M⁻¹ s⁻¹; that for B10 was 318000 M⁻¹ s⁻¹; that for B11 was 318000 M⁻¹ s⁻¹.
On the same count and under the same terms, the value for B12 was 318000 M⁻¹ s⁻¹; that for B13 was 318000 M⁻¹ s⁻¹.
B14 had a kon of 318000 M⁻¹ s⁻¹.
Still for that read-out and setting: the figure for B15 is 318000 M⁻¹ s⁻¹; for B16 it is 318000 M⁻¹ s⁻¹.
On the same count and under the same terms, the value for B17 was 318000 M⁻¹ s⁻¹.
Still for that read-out and setting: the value for B18 was 318000 M⁻¹ s⁻¹; that for B19 was 318000 M⁻¹ s⁻¹; that for B20 was 318000 M⁻¹ s⁻¹.
In turn, B21 yielded a kon of 318000 M⁻¹ s⁻¹.
Molecule B22 yielded an association rate constant (kon) of 318000 M⁻¹ s⁻¹.
As to B23, the kon turned out to be 318000 M⁻¹ s⁻¹.

The next test concerns the target T1, biotinylated Aβ1-40 peptide. The test is described as follows: SPR, Fab over Aβ1-40 on SA chip; KD=koff/kon. The protocol: as §1, §2
Regarding B1, the affinity, expressed as Kd, was 1.45 nM.
Same read-out and setting: the value for B2 was 15.7 nM.
On the same count and under the same terms, the value for B3 was 26.1 nM.
The molecule B4 displayed a Kd of 24.5 nM. The Kd values of the last two molecules are within 1.5-fold of each other.
With B5, the Kd amounted to 2.2 nM.
The molecule B6 gave a Kd of 3.46 nM.
As for B7, the equilibrium dissociation constant (Kd) was determined as 15.7 nM.
Same read-out and setting: the figure for B8 is 5.03 nM.
In turn, B9 showed a Kd of 2.11 nM.
As for B24, the Kd turned out to be 2.58 nM. This Kd and that of the molecule before are within 1.5-fold of each other.
The same measure, in the same setting: the figure for B10 is 10.4 nM; for B11 it is 12.6 nM; for B12 it is 4.72 nM.
Still for that read-out and setting: the value for B13 was 18.9 nM; that for B14 was 3.13 nM.
The same measure, in the same setting: the figure for B15 is 6.29 nM; for B16 it is 4.09 nM; for B17 it is 12.9 nM.
Consider B18, for which the affinity, expressed as Kd, was 6.29 nM.
Same read-out and setting: the value for B19 was 3.14 nM; that for B20 was 2.7 nM.
Turning to B21, binding was characterised by a dissociation constant (Kd) of 1.23 nM. Against the preceding molecule, the Kd is about 2.2-fold lower.
Take B22: the affinity, expressed as Kd, was 5.35 nM.
The same measure, in the same setting: the value for B23 was 21.4 nM.

The next test has the same target. Briefly: SPR, Fab over Aβ1-40 on SA chip. The protocol:
as §1, §2
For orientation: SPR reads the build-up and loss of mass on a sensor chip optically.
B1 came in with an off-rate (koff) of 0.00046 s⁻¹.
On the same count and under the same terms, the value for B2 was 0.005 s⁻¹.
On the same count and under the same terms, the value for B3 was 0.0083 s⁻¹; that for B4 was 0.0078 s⁻¹.
Consider B5, for which the koff amounted to 0.0007 s⁻¹.
In turn, B6 showed a koff of 0.0011 s⁻¹. This koff is about 1.6-fold higher than that of the molecule before.
Same read-out and setting: the value for B7 was 0.005 s⁻¹.
The same measure, in the same setting: the figure for B8 is 0.0016 s⁻¹; for B9 it is 0.00067 s⁻¹.
On to B24, for which the koff is 0.00092 s⁻¹ and the kon was determined as 356000 M⁻¹ s⁻¹.
B10 registered a koff of 0.0033 s⁻¹.
B11 returned a koff of 0.004 s⁻¹.
Same read-out and setting: the value for B12 was 0.0015 s⁻¹; that for B13 was 0.006 s⁻¹.
On the same count and under the same terms, the value for B14 was 0.000995 s⁻¹; that for B15 was 0.002 s⁻¹; that for B16 was 0.0013 s⁻¹.
Consider B17, for which the koff was determined as 0.0041 s⁻¹.
Still for that read-out and setting: the value for B18 was 0.002 s⁻¹; that for B19 was 0.001 s⁻¹; that for B20 was 0.00086 s⁻¹.
On to B21, for which the koff stood at 0.00039 s⁻¹.
In turn, B22 yielded a koff of 0.0017 s⁻¹.
Still for that read-out and setting: the figure for B23 is 0.0068 s⁻¹.
